For test [1], the target named is T1, human TIGIT on Jurkat reporter cells (Jurkat/NFAT-Luc/hPD-1-hTIGIT) (human, UniProt Q495A1 22-244).
T1 sequence (looked up): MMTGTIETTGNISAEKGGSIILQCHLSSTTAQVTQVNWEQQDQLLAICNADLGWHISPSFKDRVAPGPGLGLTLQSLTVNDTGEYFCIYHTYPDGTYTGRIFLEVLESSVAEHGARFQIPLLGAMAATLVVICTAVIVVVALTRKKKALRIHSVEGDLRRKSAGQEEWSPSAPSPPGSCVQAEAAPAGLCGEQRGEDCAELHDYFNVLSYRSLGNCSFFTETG
In words: cell-based or functional assay.

Test [2] concerns the target T2, recombinant protein hTIGIT-ECD-mFC (human; mouse, UniProt Q495A1 24-155).
T2 construct: range 24-155; Expressed in 293E cells; also called human TIGIT-ECD-mFc; not shown: murine IgG2a Fc domain of the vector MX2-mFc
T2 sequence (looked up): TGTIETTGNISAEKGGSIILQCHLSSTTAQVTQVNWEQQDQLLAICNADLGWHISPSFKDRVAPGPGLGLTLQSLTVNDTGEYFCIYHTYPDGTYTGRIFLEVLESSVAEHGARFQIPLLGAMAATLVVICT
The experiment in a line: ELISA, human TIGIT-ECD-mFc coated at 0.5 ug/mL, anti-IgG4-HRP. Here is the method: (§1) The solution in wells was then discarded, and the wells were washed 3 times with a washing buffer and blocked for 60 minutes with PBS containing 2% BSA. After the plate was washed 3 times with the washing buffer, humanized antibody dilutions at different concentrations were added. The antibodies were incubated at 37° C. for 60 minutes, and then the plate was washed 3 times with the washing buffer and added with 5000-fold diluted anti-IgG4-HRP. The system was incubated at 37° C. for 30 minutes, and then washed three times with the washing buffer and added with 100 μL of TMB substrate for color development. The system was incubated at room temperature for 30 minutes, and the reaction was then terminated with 100 μL of 2 M hydrochloric acid solution. The absorbance at 450 nm was measured by a plate reader.

In test [3] the target is T1, human TIGIT on Jurkat reporter cells …. The experiment in a line: cell-based or functional assay. The source holds these as a separate data set.
The target in test [4] is T2, recombinant protein hTIGIT-ECD-mFC. In words: ELISA, human TIGIT-ECD-mFc coated at 1 ug/mL, anti-IgG4-HRP. Here is the method: as §1, with “chimeric” for “humanized”
The target in test [5] is T3, hTIGIT-Fc (human, UniProt Q495A1 24-155).
T3 construct: range 24-155; also called human TIGIT; not shown: Fc part of the Biacore antigen is not described (possibly the murine IgG2a Fc of hTIGIT-ECD-mFC)
T3 sequence (looked up): T2 sequence (looked up)
The experiment in a line: SPR (Biacore T200), antibody captured by anti-human Fc, antigen in solution, 1:1 model. Here is the method:
(§2) An S series CM5 chip (GE) was first loaded onto the instrument, and 40 μg/mL of goat anti-human Fc fragment antibody (Jackson ImmuneResearch) dissolved in sodium acetate-acetic acid buffer (pH 5.0) was ready to be coupled to the chip surface. The buffer used for the detection of antibody-antigen binding was HBS-EP+ from GE Healthcare. The antibodies hu3 and hu20 were each diluted to 8 μg/mL and captured on the chip surface. […] The resulting data were analyzed with a 1:1 binding model by using Biacore T200 Evaluation Software 3.0.

Test [6] concerns the target T4, Cyno TIGIT-Fc (cynomolgus monkey, UniProt A0A7N9I9V4 89-209).
T4 construct: extracellular domain; the whole named entry is XP 015300912.1; also called cynomolgus monkey TIGIT; cynoTIGIT-ECD; not shown: Fc part is not described
The test is described as above. On the procedure: as §2

Test [7] has as its target T5, hTIGIT (FACS blocking assay of Example 10) (human, UniProt Q495A1 22-141, limits assumed).
T5 construct: The protocol names only PVR-mFC and 293F-hPVR cells; which of them should be TIGIT cannot be told
T5 sequence (looked up): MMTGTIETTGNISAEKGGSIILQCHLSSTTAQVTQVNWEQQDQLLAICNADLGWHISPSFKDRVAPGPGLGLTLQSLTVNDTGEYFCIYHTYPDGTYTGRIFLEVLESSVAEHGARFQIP
In words: competitive FACS, antibody titrated from 30 ug/mL in 3-fold steps, blocking of the binding of hTIGIT to its ligand hPVR on the cell surface, MFI; unit taken from the axis Log[concentration] ng/mL. On the procedure:
Briefly, antibody dilutions at different concentrations (an initial concentration of 30 μg/mL, 3-fold titration) were each mixed with PVR-mFC (1 ug/mL, 50 μL) and incubated for 30 minutes at room temperature. The mixture was then incubated with cell suspension (stable 293F-hPVR cell line, 2.5×10⁴ cells/well) for 15 minutes at 37° C. After 3 times of elution with PBS, 100 μL of goat anti-human IgG-PE antibody was added, and the system was incubated for 30 minutes in the dark. After 3 times of elution with PBS, detection was performed by FACS. Viable cells were gated on the basis of FSC/SSC, and their geometric mean fluorescence intensity was measured.

Where a chain is given by its changes, count along the chain named.

T4 sequence (A0A7N9I9V4 entry or part of it): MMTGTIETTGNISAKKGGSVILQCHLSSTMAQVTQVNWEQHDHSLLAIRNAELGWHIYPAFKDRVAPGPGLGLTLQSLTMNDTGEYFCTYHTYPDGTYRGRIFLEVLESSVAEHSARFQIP

B1: humanized antibody hu62 (antibody, V domains shown)
VH: QVQLVQSGAEVKKPGASVKVSCKASGYTFTNYWILWIRQAPGQGLEWMGDIYPGGHYTNYNEKFQGRVTLTADTSSSTAYMELSSLRSEDTAVYYCTRYYGPYAMDYWGQGTLVTVSS
VL: DIQMTQSPSSLSASVGDRVTITCRSSQSLLYNSNQKNYLAWYQQKPGKAPKLLIYWASTGESGVPSRFSGSGSGTDFTLTISSLQPEDFATYYCQQYYSYPFTFGQGTKVEIK
notes: Humanized from 23O20; detected with anti-IgG4-HRP in the ELISA, constant regions not otherwise stated
In the case of B1, the “EC50, luciferase reporter gene experiment (T cell activation)” value (shortened to “EC50 … (T cell activation)”) in test [1] was 109 ng/mL. In addition, the EC50 in test [2] was determined as 0.0086 µg/mL.

B2: humanized antibody hu69 (antibody, V domains shown)
VH: B1 VH with S85R, E89D
VL: DIVMTQSPLSLPVTPGEPASISCRSSQSLLYNSNQKNYLAWYLQKPGQSPQLLIYWASTGESGVPDRFSGSGSGTDFTLKISRVEAEDVGVYYCQQYYSYPFTFGQGTKLEIK
notes: as for B1
Take B2: the “EC50 … (T cell activation)” value in test [1] was 103 ng/mL. Moreover, the EC50 in test [2] was 0.0107 µg/mL.

B3: humanized antibody hu81 (antibody, V domains shown)
VH: B1 VH with F64L, S84R, E89D
VL: B2 VL with L110V
notes: as for B1
Turning to B3, the “EC50 … (T cell activation)” value in test [1] was 88.4 ng/mL. For the same molecule, the EC50 in test [2] stood at 0.00983 µg/mL.

B4: hybridoma antibody 2O18 (antibody, V domains shown)
VH: EVQLQQSGPELVKPGASVKISCKTSGYAFTEYTMHWVKQSHGKSLEWIGGINPNTGGTTYNQKFKGKATLTVDKSSSTAYMEFRSLTSEDSAVYYCAKLLRLMYYFDYWGQGTTLTVSS
VL: DIVMTQSHKFMSTSVGDRVSITCKASQDVRTAVAWYQQKPGQSPKLLIYSASYRYTGVPDRFTGSGSGTDFTFTISSVQAEDLALYYCHQHYITPWTFGGGTKLEIK
Take B4: in test [3], the “RLU fold change, NFAT-luciferase reporter (Jurkat hPD-1/hTIGIT + CHO hPD-L1/hPVRL2), with JS001” value amounted to 3.3 fold and the “RLU fold change, NFAT-luciferase reporter, antibody alone” value is 6.3 fold.

B5: chimeric antibody ch1 (antibody, human IgG4, V domains shown)
VH: B4 VH
VL: B4 VL
notes: IgG4 chimeric antibody; also called 2O18-ch-HC / 2O18-ch-LC
For the molecule B5, the “EC50 … (T cell activation)” value in test [1] is 76.6 ng/mL. Further, in test [4], the EC50 was determined as 0.0325 µg/mL.

B6: chimeric antibody ch4 (antibody, human IgG4, V domains shown)
VH: QVQLQQSGDELVRPGTSVKVSCQAAGYTFTNYWILWIKQRPRHGLEWIGDIYPGGHYTNYNEKFKGKATLTADTSSSTAYMQLNSLTSEDSAIYYCTRYYGPYAMDYWGQGTSVTVSS
VL: DIVMSQSPSSLPVSVGEKVTMSCKSSQSLLYNSNQKNYLAWYQQIPGQSPKLLIYWASTGESGVPDRFTGSGSGTDFTLTISSVKAEDLAVYYCQQYYSYPFTFGSGTKLEIK
notes: IgG4 chimeric antibody; also called 23O20-ch-HC / 23O20-ch-LC
As to B6, the “EC50 … (T cell activation)” value in test [1] amounted to 104 ng/mL. The EC50 in test [4] was found to be 0.00893 µg/mL.

B7: hybridoma antibody 23O20 (antibody, V domains shown)
VH: B6 VH
VL: B6 VL
As for B7, in test [3], the “RLU fold change, NFAT-luciferase reporter, antibody alone” value turned out to be 2.3 fold and the “RLU fold change, NFAT-luciferase reporter, with JS001” value was found to be 2.3 fold.

B8: humanized antibody hu3 (antibody, human IgG4 S228P, kappa, V domains shown)
VH: QVQLVQSGAEVKKPGASVKVSCKTSGYAFTEYTMHWVRQAPGQGLEWMGGINPNTGGTTYNQKFQGRVTLTVDKSSSTAYMELSRLRSDDTVVYYCAKLLRLMYYFDYWGQGTLVTVSS
VL: DIVMTQSPDSLAVSLGERATINCKASQDVRTAVAWYQQKPGQPPKLLIYSASYRYTGVPDRFSGSGSGTDFTLTISSLQAEDVAVYYCHQHYITPWTFGGGTKVEIKR
notes: Humanized from 2O18
For the molecule B8, in test [1], the “EC50 … (T cell activation)” value turned out to be 140 ng/mL. Moreover, the EC50 in test [2] came out at 0.0232 µg/mL. In test [5], the Kd amounted to 0.13 nM, the koff is 0.000121 s⁻¹ and the kon came to 935000 M⁻¹ s⁻¹. In test [6], this molecule gave a Kd of 1.42 nM, a koff of 0.0003 s⁻¹ and a kon of 211000 M⁻¹ s⁻¹. The molecule further showed an IC50 in test [7] of 0.0693 µg/mL.

B9: humanized antibody hu20 (antibody, human IgG4 S228P, kappa, V domains shown)
VH: B8 VH with Q43K, R85S, D89E
VL: DIQMTQSPSSLSASVGDRVTITCQASQDVRTAVAWYQQKPGKAPKLLIYSASYRYTGVPSRFSGSGSGTDFTFTISSLQPEDIATYYCHQHYITPWTFGGGTKVEIKR
notes: Humanized from 2O18
Consider B9, for which, in test [1], the “EC50 … (T cell activation)” value amounted to 42.4 ng/mL. The EC50 in test [2] worked out at 0.0378 µg/mL. In test [5], this molecule yielded a Kd of 0.209 nM, a koff of 0.000163 s⁻¹ and a kon of 777000 M⁻¹ s⁻¹. For the same molecule, in test [6], the Kd worked out at 1.45 nM, the koff stood at 0.000329 s⁻¹ and the kon is 226000 M⁻¹ s⁻¹. Also, the IC50 in test [7] turned out to be 0.0587 µg/mL.

Source of the values: patent publication US20220363754A1 (SHANGHAI JUNSHI BIOSCIENCES, published 2022).
